Experimental data from patent US20030100114, “Methods for regulating T cell subsets by modulating transcription factor activity” (President and Fellows of Harvard College, published 2003).

Experiments:
[1] = biological target: T1, c-Maf (b-zip domain, aa 171-371) (UniProt P54843 P54843:171-370); experiment: EMSA; 20 mM HEPES pH 7.9, 100 mM KCl, room temperature; settings: tags: S-Tag, pET29, E. coli BL21(DE3); label: 32P
Protocol: (§1) Electrophoretic mobility shift assays (EMSA) were performed as follows. 100 ng of double-stranded oligonucleotides were end-labeled with γ-³²P-dATP (DuPont NEN Research Product, Wilmington, Del.) using T4 polynucleotide kinase (Pharmacia LKB Biotechnology, Inc., Piscataway, N.J.). The labeled ds-oligonucleotides were fractionated on 15-20% polyacrylamide gels, eluted overnight at 37° C. in 1×TE and precipitated in ethanol. Binding assays were performed at room temperature for 20 minutes using 0.5 μg of recombinant proteins or 4 μl of in vitro translated products, 500 ng poly(dI-dC), and 20,000 cpm of probe in a 15 μl volume of 20 mM HEPES (pH 7.9), 100 mM KCl, 5% glycerol, 1 mM EDTA, 5 mM DTT, 0.1% NP-40, and 0.5 mg/ml BSA. The samples were then fractionated in 4% non-denaturing polyacrylamide gel containing 0.5×TBE at room temperature. Oligonucleotides derived from the murine IL4 promoter used in EMSA were: […]

c-Jun [2] = biological target: T2, c-Jun (Mus musculus, UniProt P05627 P05627:1-334); experiment: EMSA; consensus MARE contains core TRE site; settings: tags: full-length, pGEM4, rabbit reticulocyte lysate TnT; label: 32P
T2 sequence (P05627 whole entry, one chain of several): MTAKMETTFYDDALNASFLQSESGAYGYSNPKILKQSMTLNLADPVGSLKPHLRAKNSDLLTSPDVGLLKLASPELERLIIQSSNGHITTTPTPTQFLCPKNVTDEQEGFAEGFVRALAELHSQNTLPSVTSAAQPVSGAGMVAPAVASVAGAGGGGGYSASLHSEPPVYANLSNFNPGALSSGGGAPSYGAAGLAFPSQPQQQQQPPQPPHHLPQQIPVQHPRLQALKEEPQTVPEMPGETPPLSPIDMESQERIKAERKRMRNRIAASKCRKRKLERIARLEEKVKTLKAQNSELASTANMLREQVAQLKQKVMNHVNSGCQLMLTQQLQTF
Protocol: as §1

[3] = biological target: T1, c-Maf (b-zip domain, aa 171-371); experiment: EMSA; competed by homologous unlabeled probe; additional complex formed with NF-ATp; settings: tags: S-Tag, pET29, E. coli BL21(DE3); label: 32P
Protocol: (§2) Electrophoretic mobility shift assays (EMSA) were performed as follows. 100 ng of double-stranded oligonucleotides were end-labeled with γ-³²P-dATP (DuPont NEN Research Product, Wilmington, Del.) using T4 polynucleotide kinase (Pharmacia LKB Biotechnology, Inc., Piscataway, N.J.). The labeled ds-oligonucleotides were fractionated on 15-20% polyacrylamide gels, eluted overnight at 37° C. in 1×TE and precipitated in ethanol. Binding assays were performed at room temperature for 20 minutes using 0.5 μg of recombinant proteins or 4 μl of in vitro translated products, 500 ng poly(dI-dC), and 20,000 cpm of probe in a 15 μl volume of 20 mM HEPES (pH 7.9), 100 mM KCl, 5% glycerol, 1 mM EDTA, 5 mM DTT, 0.1% NP-40, and 0.5 mg/ml BSA. The samples were then fractionated in 4% non-denaturing polyacrylamide gel containing 0.5×TBE at room temperature. Oligonucleotides derived from the murine IL4 promoter used in EMSA were:
(§3) NF-AT proteins interact cooperatively with AP-1 family member proteins to form higher mobility complexes on IL-2 and IL-4 promoter DNA on EMSA (Jain, J. (1993) Nature 365:353-355; Rooney, J. et al. (1995) Immunity 2:545-553). […] To determine if c-Maf interacted with NF-AT in the presence of DNA, recombinant NF-ATp and c-Maf proteins were used separately or together in EMSA with the 33 bp oligonucleotide containing both the NF-AT and adjacent MARE sites. […]

c-Jun [4] = biological target: T2, c-Jun; experiment: EMSA; settings: tags: full-length, pGEM4, rabbit reticulocyte lysate TnT; label: 32P
Protocol: as §2, §3

T1 sequence (P54843 171-370, one chain of several): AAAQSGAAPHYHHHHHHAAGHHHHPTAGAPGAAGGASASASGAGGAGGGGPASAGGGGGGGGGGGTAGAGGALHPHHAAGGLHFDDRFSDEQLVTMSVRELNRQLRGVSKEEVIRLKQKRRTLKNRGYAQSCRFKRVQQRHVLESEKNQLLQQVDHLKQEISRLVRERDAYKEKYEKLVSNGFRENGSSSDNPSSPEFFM

B1: consensus MARE (dsDNA)
DNA 1: GGAATTGCTGACTCAGCATTACT
DNA 2: AGTAATGCTGAGTCAGCAATTCC
**Q.** Does B1 bind [1]?
**A.** Result: binds

**Q.** Does B1 bind (c-Jun [2])?
**A.** Result: binds

B2: IL-4 promoter -59 to -27 wild type (dsDNA)
DNA 1: CTCATTTTCCCTTGGTTTCAGCAACTTTAACTC
DNA 2: GAGTTAAAGTTGCTGAAACCAAGGGAAAATGAG
**Q.** What does the source list for B2?
**A.** binding result [3]: binds; binding result (c-Jun [4]): no binding
